# Data as given in PMC3378762.
# Key:
# Lys315 = Lys315 (UniProt position 315, FGTNNKIFLEF); experiment: kinetics; conditions: Oxidative half-reaction, N1-acetylspermine as amine substrate; cited from earlier work
# CC(=O)NCCCNCCCCNCCCN = experiment: steady-state oxygen consumption, oxygen electrode; assay type: biochemical, Saccharomyces cerevisiae; conditions: pH 9.0, 25 °C, 1.3 mM oxygen, 10% glycerol
# NCCCNCCCCNCCCN = experiment: steady-state oxygen consumption, oxygen electrode; assay type: biochemical, Saccharomyces cerevisiae; conditions: pH 9.35, 25 °C, 1.3 mM oxygen, 10% glycerol, pH 9.35
Substance,pKa (Lys315),Km (CC(=O)NCCCNCCCCNCCCN; pH 9.0) [µM],kcat (CC(=O)NCCCNCCCCNCCCN; pH 9.0) [s⁻¹],kcat/Km (CC(=O)NCCCNCCCCNCCCN; pH 9.0) [M⁻¹ s⁻¹],Km (NCCCNCCCCNCCCN) [µM],kcat (NCCCNCCCCNCCCN) [s⁻¹],Km (CC(=O)NCCCNCCCCNCCCN) [µM],kcat (CC(=O)NCCCNCCCCNCCCN) [s⁻¹],kcat/Km (CC(=O)NCCCNCCCCNCCCN) [M⁻¹ s⁻¹],kcat/Km (NCCCNCCCCNCCCN) [M⁻¹ s⁻¹]
N1-acetylpolyamine oxidase (mouse PAO) (Mus musculus),7.0,–,–,–,–,–,–,–,–,–
Fms1 (Saccharomyces cerevisiae S288C; H67Q),–,47 ± 6,3.9 ± 0.1,83000 ± 11000,165 ± 25,0.88 ± 0.01,–,–,–,–
Fms1 (Saccharomyces cerevisiae S288C; H67N),–,–,–,–,–,–,18.6 ± 4.0,1.35 ± 0.04,72500 ± 15000,–
Fms1 (Saccharomyces cerevisiae S288C; H67A),–,50 ± 13,2.7 ± 0.1,54000 ± 14000,1740 ± 310,0.44 ± 0.03,–,–,–,250 ± 50
